Paper doi:10.1101/157495 (bioRxiv, 2017)

Target: the molecule itself
Assay: SEC

B1: cyclohexadienyl dehydratase from Pseudomonas aeruginosa (PaCDT) (enzyme, UniProt Q01269 26-268, looked up)
chain: QESRLDRILESGVLRVATTGDYKPFSYRTEEGGYAGFDVDMAQRLAESLGAKLVVVPTSWPNLMRDFADDRFDIAMSGISINLERQRQAYFSIPYLRDGKTPITLCSEEARFQTLEQIDQPGVTAIVNPGGTNEKFARANLKKARILVHPDNVTIFQQIVDGKADLMMTDAIEARLQSRLHPELCAVHPQQPFDFAEKAYLLPRDEAFKRYVDQWLHIAEQSGLLRQRMEHWLEYRWPTAHGK
  stoichiometry N: 3
